Columns and labels:
[1] = target: FcγRIIIa V158 on cells (TR-FRET assay) (UniProt P08637); experiment: TR-FRET competition (CisBio) on cells bearing labeled receptor, vs labeled competitor antibody
[2] = target: FcγRIIb on cells (TR-FRET assay) (UniProt P31994); experiment: as above
[3] = target: FcγRIIa H131 (CD32a) on cells (human) (UniProt P12318); experiment: as above
[4] = target: human recombinant CD64 (Fc gamma receptor I) (human) (UniProt P12314); experiment: SPR (Biacore T200), construct captured on Protein A, soluble CD64 as analyte
[5] = target: FcγRIIIa on effector cells (Jurkat/FcγRIIIa cells, NK cells) (UniProt P08637); experiment: cell-based or functional assay
FcγRIIIa on effector cells (Jurkat/FcγRIIIa cells, NK cells), sequence (P08637 17-254): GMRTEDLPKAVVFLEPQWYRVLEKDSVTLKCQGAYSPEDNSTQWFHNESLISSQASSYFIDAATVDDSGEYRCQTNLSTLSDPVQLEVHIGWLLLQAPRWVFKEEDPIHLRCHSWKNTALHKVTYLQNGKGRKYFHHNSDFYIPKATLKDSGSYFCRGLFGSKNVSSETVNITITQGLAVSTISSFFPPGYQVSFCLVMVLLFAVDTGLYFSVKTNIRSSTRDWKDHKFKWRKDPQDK

human recombinant CD64 (Fc gamma receptor I) (human), sequence (P12314 16-288 limits assumed): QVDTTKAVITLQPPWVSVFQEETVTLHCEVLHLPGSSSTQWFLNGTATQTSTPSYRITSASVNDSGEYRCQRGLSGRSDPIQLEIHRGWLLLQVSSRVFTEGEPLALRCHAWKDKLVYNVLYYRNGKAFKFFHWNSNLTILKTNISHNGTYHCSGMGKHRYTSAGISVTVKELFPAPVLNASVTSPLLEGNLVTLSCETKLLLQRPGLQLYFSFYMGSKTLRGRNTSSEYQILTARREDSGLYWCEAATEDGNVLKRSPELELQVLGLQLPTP
FcγRIIIa V158 on cells (TR-FRET assay), sequence (P08637 17-254 F176V limits assumed): as the sequence (P08637 17-254) above, with F160V counted along it
FcγRIIb on cells (TR-FRET assay), sequence (P31994 43-310 limits assumed): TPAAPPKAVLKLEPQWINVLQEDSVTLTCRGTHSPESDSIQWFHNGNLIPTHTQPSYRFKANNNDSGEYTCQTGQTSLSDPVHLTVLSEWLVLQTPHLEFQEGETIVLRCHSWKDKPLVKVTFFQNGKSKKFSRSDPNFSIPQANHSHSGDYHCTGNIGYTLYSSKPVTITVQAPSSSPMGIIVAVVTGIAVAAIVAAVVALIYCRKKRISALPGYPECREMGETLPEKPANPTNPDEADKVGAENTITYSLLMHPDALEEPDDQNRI
FcγRIIa H131 (CD32a) on cells (human), sequence (P12318 34-317): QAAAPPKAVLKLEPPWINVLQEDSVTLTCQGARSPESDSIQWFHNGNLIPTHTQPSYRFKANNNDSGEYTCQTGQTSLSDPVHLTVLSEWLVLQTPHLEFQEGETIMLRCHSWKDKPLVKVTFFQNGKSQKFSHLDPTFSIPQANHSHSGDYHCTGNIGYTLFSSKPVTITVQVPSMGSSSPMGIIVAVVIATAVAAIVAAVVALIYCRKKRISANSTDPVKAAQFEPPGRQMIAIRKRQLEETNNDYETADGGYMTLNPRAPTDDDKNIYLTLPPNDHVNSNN

IC50 [1] | IC50 [2] | IC50 [3] | CD64 Valency by SPR [4] | EC50 (nM), Mean; ADCC in KILR-A549 cells with NK cells [5] | EC50 (nM), Mean; FcyRIIIa signaling in an ADCC reporter assay [5] | Substance
428 nM | 3290 nM | 1270 nM | 1.5 | – | – | anti-CD20 monoclonal antibody with the CDRs of Gazyva (obinutuzumab)
– | – | – | – | 0.0054 nM | – | avelumab anti-PD-L1 monoclonal antibody, afucosylated
– | – | – | 1.3 | – | 0.049 nM | avelumab anti-PD-L1 monoclonal antibody, fucosylated (S1A-AA-Ave-001, generated in-house)
